According to US11572572B2, “A138T mutation-containing plant EPSPS mutant, and encoding gene and application thereof” (GEVOTO LLC, priority 2017, dated 2023):
Numbering of substitutions follows the chain as printed.

B1: T1: Triticum aestivum EPSPS mutant containing G113(96)A and P118(101)S (SEQ ID NO: 4), gene SEQ ID NO: 21; Control Group 2 of Example 7 (protein)
chain: MATSVAAPAAPAGAEEVVLQPIREISGAVQLPGSKSLSNRILLLSALSEGTTVVDNLLNSEDVHYMLEALEALGLSVEADKVAKRAVVVGCGGRFPVEKDAKEEVKLFLGNAATAMRSLTAAVVAAGGNATYVLDGVPRMRERPIGDLVVGLQQLGADVDCFLGTNCPPVRINGKGGLPGGKVKLSGSISSQYLSSLLMAAPLALEDVEIEIIDKLISVPYVEMTLKLMEHFGVTAEHSDSWDRFYIKGGQKYKSPGNAYVEGDASSASYFLAGAAITGGTVTVEGCGTTSLQGDVKFAEVLEMMGAKVTWTDTSVTVTGPPRQPFGRKHLKAVDVNMNKMPDVAMTLAVVALFADGPTAIRDVASWRVKETERMVAIRTELTKLGATVEEGPDYCIITPPEKLNITAIDTYDDHRMAMAFSLAACAEVPVTIRDPGCTRKTFPNYFDVLSTFVKN
modifications: Triticum aestivum EPSPS mutant with mutations G113(96)A and P118(101)S
B2: R5: Oryza sativa EPSPS mutant containing G111(96)A, P116(101)S, and A155(138)T (SEQ ID NO: 9), encoding gene SEQ ID NO: 19 (protein)
chain: MASNAAAAAAKAEEIVLQPIREISGAVQLPGSKSLSNRILLLSALSEGTTVVDNLLNSEDVHYMLEALKALGLSVEADKVAKRAVVVGCGGKFPVEKDAKEEVQLFLGNAATAMRSLTAAVTAAGGNATYVLDGVPRMRERPIGDLVVGLKQLGTDVDCFLGTECPPVRVKGIGGLPGGKVKLSGSISSQYLSALLMAAPLALGDVEIEIIDKLISIPYVEMTLRLMERFGVKAEHSDSWDRFYIKGGQKYKSPGNAYVEGDASSASYFLAGAAITGGTVTVQGCGTTSLQGDVKFAEVLEMMGAKVTWTDTSVTVTGPPREPYGKKHLKAVDVNMNKMPDVAMTLAVVALFADGPTAIRDVASWRVKETERMVAIRTELTKLGASVEEGPDYCIITPPEKLNITAIDTYDDHRMAMAFSLAACADVPVTIRDPGCTRKTFPNYFDVLSTFVRN
modifications: Oryza sativa EPSPS mutant with mutations G111(96)A, P116(101)S, and A155(138)T
B3: R4: Oryza sativa EPSPS mutant containing G111(96)A and P116(101)S (SEQ ID NO: 8), encoding gene SEQ ID NO: 18 (protein)
chain: B2 chain with T155A
modifications: Oryza sativa EPSPS mutant with mutations G111(96)A and P116(101)S

System: transgenic rice seedlings
Assay: Glyphosate resistance of EPSPS mutants in transgenic rice sprayed with glyphosate (Example 8)
Assay type: in vivo, rice (Nipponbare)
Description: The glyphosate resistance of the EPSPS mutants of the above examples in transgenic rice was detected by the following method.
Plasmids of monoclonal resistant strain comprising pADV5-EPSPS of Examples 1-4 (containing the EPSPS mutant genes) were extracted in accordance with a conventional method. They were subjected to double enzymatic digestion with Pacl and BstEII to recover small fragments, and then the small fragments were ligated, using T4 DNA ligase, to a pGVP1 vector subjected to double enzymatic digestion in the same manner, to obtain a pGVP1-EPSPS vector having a structure as shown in FIG. 8.
The pGVP1-EPSPS vector was transformed into EHA105 (Agrobacterium tumefaciens) competent cells, and single clones were picked out for colony PCR detection to obtain positive strains. Then, the positive strains were inoculated into and propagated in 1 mL of a YEP medium containing 50 μg·mL^−1 kanamycin and 50 μg·mL^−1 rifampicin, and stored at −80° C. or used in subsequent experiments.
400 ul of a strain containing the target gene vector stored at −80° C. was added to a culture dish with a solid medium containing YEP+50 μg/mL rifampicin+50 μg/mL kanamycin and cultured in the dark at 28° C. for 24 hours, and then the bacterium was added to an infection medium and adjusted to OD=0.2 as an infection solution.
Disinfection and Pre-culture: seeds of mature rice (Nipponbare) were manually dehulled. Full seeds with no bacterial plaques were selected and disinfected in accordance with the following steps: the seeds were placed in a 50 ml sterile centrifuge tube and disinfected with the added 70% ethanol in water for 30 seconds, ethanol solution was poured out, and the seeds were washed once with sterile water; 10 to 20 ml of 2.6% sodium hypochlorite solution was added to soak and disinfect the seeds for 20 minutes. The sodium hypochlorite solution was poured out, and the seeds were soaked and washed with sterile water for 6 or 7 times, for 3 minutes each time.
Induction and Subculture: the seeds were placed on and blotted with sterile filter paper, and the mature embryos were placed in an induction medium, with 12 embryos per dish. After the operation was completed, the culture dishes were sealed with parafilm and underwent culturing in the dark at 30° C. for 21 to 28 days. Callus tissue was transferred to a fresh medium and continued to be cultured for about 7 to 14 days. Spherical callus tissue with a dimension of 1 to 2 mm was taken as an infection receptor.
The callus tissue was placed into a centrifuge tube or culture cup, infected in the prepared Agrobacterium suspension added thereto for 10 minutes, and shaken several times during the period; the bacterial solution was poured out, the callus tissue was taken out and placed on sterile filter paper for absorbing the bacterial solution from its surface (for about 30 minutes); the callus tissue was placed on sterile filter paper in culture dishes and cultured in the dark at 25° C. for 2 or 3 days.
Recovery Culture: the co-cultured callus tissue was inoculated on a recovery medium and cultured in the dark at 30° C. for 5 to 7 days.
Primary Screening: the callus was transferred to screening medium 1 (51) and cultured in the dark at 30° C. for 14 days.
Secondary Screening: the callus was then transferred to screening medium 2 (S2) and cultured in the dark at 30° C. for 14 days.
Primary Differentiation: the screened resistant callus tissue was transferred to a differentiation medium and cultured for about 21 days at 30° C. under exposure to light for 19 hours.
Secondary Differentiation: new young shoots were selected and moved to a fresh differentiation medium and continued to be cultured for about 21 days.
When the new seedlings grew to about 2 cm, they were moved to a rooting medium and cultured for 3 to 4 weeks at 30° C. under exposure to light (for 16/8 h). […]

[1] = 1X dose glyphosate (1,060 g/ha), day 10 after spraying
[2] = 2X dose glyphosate (2,120 g/ha) on survivors of 1X, after another 10 days
[3] = 5X dose glyphosate (5,300 g/ha) on survivors of 2X, after additional 10 days
[4] = 20X dose glyphosate (21,200 g/ha) on survivors of 5X, after further 10 days

Row | Molecule | % ++&+++ (percentage of moderately and highly glyphosate resistant plants in total plants observed) [1] | plant number with resistance + (low glyphosate resistant) [1] | plant number with resistance ++ (moderately glyphosate resistant) [1] | plant number with resistance +++ (highly glyphosate resistant) [1] | % ++&+++ (percentage of moderately and highly glyphosate resistant plants in total plants observed) [2] | plant number with resistance + (low glyphosate resistant) [2] | plant number with resistance ++ (moderately glyphosate resistant) [2] | plant number with resistance +++ (highly glyphosate resistant) [2] | plant number with resistance − (non-glyphosate resistant, withered or dead) [2] | % ++&+++ (percentage of moderately and highly glyphosate resistant plants in total plants observed) [3] | plant number with resistance + (low glyphosate resistant) [3] | plant number with resistance ++ (moderately glyphosate resistant) [3] | plant number with resistance +++ (highly glyphosate resistant) [3] | plant number with resistance − (non-glyphosate resistant, withered or dead) [3] | % ++&+++ (percentage of moderately and highly glyphosate resistant plants in total plants observed) [4] | plant number with resistance + (low glyphosate resistant) [4] | plant number with resistance ++ (moderately glyphosate resistant) [4] | plant number with resistance +++ (highly glyphosate resistant) [4] | plant number with resistance − (non-glyphosate resistant, withered or dead) [4] | level of glyphosate resistance of transformed rice seedlings compared with the mutant lacking the A138T mutation (R4 for R5, T1 for T2) (in words) (each of 1×, 2×, 5×, and 20× glyphosate doses)
1 | B1 | 70.0% | 1 | 7 | 14 | 36.7% | 4 | 1 | 10 | 15 | 36.7% | 4 | 7 | 4 | 15 | 13.3% | 7 | 4 | 0 | 19 | –
2 | B2 | 92.0% | 0 | 0 | 23 | 84.0% | 0 | 1 | 20 | 4 | 76.0% | 2 | 2 | 17 | 4 | – | 1 | 6 | 13 | 5 | higher levels of glyphosate resistance
3 | B3 | 88.5% | 0 | 0 | 23 | 80.8% | 2 | 1 | 20 | 3 | 69.2% | 3 | 1 | 17 | 5 | 50.0% | 3 | 10 | 3 | 10 | –
